Results published in patent US20240131059A1 (FUNDACI INSTITUT D INVESTIGACI BIOM DICA DE BELLVITGE …, published 2024).

Experiments:
[1] = biological target: the molecule itself; experiment: SDS-PAGE under reducing and non-reducing conditions, Coomassie Blue staining and Western blot (self-association into the heptamer)
From the text: (§1) For Western blot analysis, PRP-based proteins were resolved on 4-12% gradient SDS-PAGE (NuPAGE Bis-Tris 4-12% Mini Gels, Invitrogen) under reducing and non-reducing conditions and transferred to PVDF membrane. After blocking, the membrane was probed with primary antibodies: 1:2000 dil. polyclonal PK9008 rabbit anti-C4BP (a gift from Anna Blom), and 1:4000 dil. 6×His Monoclonal Antibody (Clontech, Mountain View, CA, USA), followed by the addition of 1:2000 dil. polyclonal Goat Anti-Rabbit IgG HRP (P0448, Dako, Agilent, Santa Clara. CA, USA), and 1:2000 dil. polyclonal Goat Anti-Mouse IgG HRP (P0447, Dako, Agilent, Santa Clara, CA, USA), respectively. Detection was performed with enhanced chemiluminescence (ECL) (Pierce, ThermoFischer, Carlsbad, CA, USA) using ChemiDoc Imager (Bio-Rad, Hercules, CA, USA).
(§2) In this regard, and to assess whether the C4BP CCP6 domain alone as a monomer or, conversely, in an heptavalent oligomerized form analogous to its physiological origin, would preserve the anti-inflammatory and immunomodulatory activities ascribed to PRP-HO7 (Olivar et al. (2013) J. Immunol. 190: 2857-2872). PRP6-HO7 and PRP6-NO were produced in HEK293 cells and were purified from its supernatants (FIG. 3). […]

[2] = biological target: the molecule itself; experiment: SDS-PAGE under non-reducing conditions, Coomassie Blue staining and Western blot (self-association)
From the text: as §1, §2

Protein	binding result [1]	binding result [2]
mature recombinant polypeptide forming PRP6-HO7 (single monomer chain, 14.3 kDa) (other, Same chain as in m1; also called PRP6-HO7 monomer chain) HHHHHHLCCPEPKLNNGEITQHRKSRPANHCVYFYGDEISFSCHETSRFSAICQGDGTWSPRTPSCGDETPEGCEQVLTGKRLMQCLPNPEDVKMALEVYKLSLEIEQLELQRDSARQSTLDKEL	binds	–
PRP6-NO, recombinant polypeptide formed by the CCP6 domain of C4BP(β-) fused at its C-terminus to a mutated C4BP(β-) oligomerization domain unable to … (other, Produced in Expi293 cells; Monomer of 12.7 kDa) HHHHHHLCCPEPKLNNGEITQHRKSRPANHCVYFYGDEISFSCHETSRFSAICQGDGTWSPRTPSCGDETPEGAEQVLTGKRLMQALPNPEDVKMALEVYKLSLEIEQLELQ	–	no binding
